From patent US20070244048A1 (published 2007)
No end group written: not given here.

Columns and labels:
[1] = target: T1, human NMUR1 (human, UniProt Q9HB89 1-426); assay: cell-based or functional assay
T1 sequence (looked up): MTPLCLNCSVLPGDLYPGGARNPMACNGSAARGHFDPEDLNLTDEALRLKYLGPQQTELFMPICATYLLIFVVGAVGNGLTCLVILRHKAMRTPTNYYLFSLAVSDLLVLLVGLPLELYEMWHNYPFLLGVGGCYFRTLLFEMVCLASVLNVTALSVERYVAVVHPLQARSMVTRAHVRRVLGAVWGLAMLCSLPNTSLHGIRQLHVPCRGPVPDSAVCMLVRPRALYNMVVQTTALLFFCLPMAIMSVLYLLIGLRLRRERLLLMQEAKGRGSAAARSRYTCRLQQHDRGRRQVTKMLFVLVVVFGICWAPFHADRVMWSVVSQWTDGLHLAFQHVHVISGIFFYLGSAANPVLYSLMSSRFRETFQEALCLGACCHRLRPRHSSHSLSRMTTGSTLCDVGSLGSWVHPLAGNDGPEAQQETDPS

[2] = target: T2, human NMUR2 (human, UniProt Q9GZQ4 1-415); assay: cell-based or functional assay
T2 sequence (Q9GZQ4 whole entry): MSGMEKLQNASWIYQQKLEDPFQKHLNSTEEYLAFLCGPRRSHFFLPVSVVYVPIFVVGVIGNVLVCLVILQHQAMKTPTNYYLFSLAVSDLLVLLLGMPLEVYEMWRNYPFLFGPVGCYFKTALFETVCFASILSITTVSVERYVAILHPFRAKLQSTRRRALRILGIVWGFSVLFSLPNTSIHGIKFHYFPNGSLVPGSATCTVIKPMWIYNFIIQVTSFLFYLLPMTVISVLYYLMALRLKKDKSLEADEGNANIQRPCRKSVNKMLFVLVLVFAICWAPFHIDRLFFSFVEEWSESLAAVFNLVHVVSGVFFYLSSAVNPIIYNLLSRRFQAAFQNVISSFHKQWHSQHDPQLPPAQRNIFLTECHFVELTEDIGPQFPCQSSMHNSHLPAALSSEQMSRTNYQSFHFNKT

[3] = target: T3, mouse NMUR1-ATG (mouse, UniProt O55040 1-428); assay: cell-based or functional assay
T3 sequence (looked up): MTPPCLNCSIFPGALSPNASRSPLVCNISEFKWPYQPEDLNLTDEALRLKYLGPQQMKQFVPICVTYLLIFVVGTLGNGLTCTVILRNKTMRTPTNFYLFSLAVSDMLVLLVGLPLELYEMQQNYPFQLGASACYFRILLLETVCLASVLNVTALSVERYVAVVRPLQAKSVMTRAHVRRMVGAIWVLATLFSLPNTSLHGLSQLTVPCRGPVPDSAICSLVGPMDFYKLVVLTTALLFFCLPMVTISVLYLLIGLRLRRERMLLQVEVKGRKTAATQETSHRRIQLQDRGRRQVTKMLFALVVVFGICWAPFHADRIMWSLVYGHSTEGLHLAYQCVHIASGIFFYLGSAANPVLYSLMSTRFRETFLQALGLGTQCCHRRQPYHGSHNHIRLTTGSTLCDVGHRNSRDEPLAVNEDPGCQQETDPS

[4] = target: mouse NMUR2 (mouse, UniProt Q8BZ39 1-395); assay: cell-based or functional assay
mouse NMUR2, sequence (Q8BZ39 whole entry): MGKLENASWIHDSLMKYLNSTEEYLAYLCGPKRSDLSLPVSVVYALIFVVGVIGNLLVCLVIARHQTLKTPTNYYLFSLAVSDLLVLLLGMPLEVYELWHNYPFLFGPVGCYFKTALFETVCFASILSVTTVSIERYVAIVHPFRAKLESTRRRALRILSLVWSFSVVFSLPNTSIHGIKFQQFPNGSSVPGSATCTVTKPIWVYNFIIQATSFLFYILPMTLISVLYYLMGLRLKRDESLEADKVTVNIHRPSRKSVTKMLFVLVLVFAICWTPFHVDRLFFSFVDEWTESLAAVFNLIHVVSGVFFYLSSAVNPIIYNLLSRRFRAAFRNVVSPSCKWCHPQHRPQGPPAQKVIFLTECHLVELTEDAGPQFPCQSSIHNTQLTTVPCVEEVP

[5] = target: T4, rat NMUR1-ATG (rat, UniProt Q9JJI5 1-425); assay: cell-based or functional assay
T4 sequence (looked up): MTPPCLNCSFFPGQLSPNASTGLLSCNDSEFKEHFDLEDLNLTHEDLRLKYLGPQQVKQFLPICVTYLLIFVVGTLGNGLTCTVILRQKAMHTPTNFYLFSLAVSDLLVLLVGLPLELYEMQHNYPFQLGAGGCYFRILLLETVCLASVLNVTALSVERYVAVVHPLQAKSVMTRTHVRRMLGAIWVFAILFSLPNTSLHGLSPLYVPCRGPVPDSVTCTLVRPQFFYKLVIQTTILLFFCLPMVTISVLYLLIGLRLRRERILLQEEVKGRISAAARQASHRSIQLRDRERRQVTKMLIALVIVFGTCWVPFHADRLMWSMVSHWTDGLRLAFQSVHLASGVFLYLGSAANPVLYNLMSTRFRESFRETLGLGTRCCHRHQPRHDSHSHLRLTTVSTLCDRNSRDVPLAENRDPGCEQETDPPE

[6] = target: T5, rat NMUR1-TTG (rat, UniProt Q9JJI5 1-425); assay: cell-based or functional assay
T5 sequence (looked up): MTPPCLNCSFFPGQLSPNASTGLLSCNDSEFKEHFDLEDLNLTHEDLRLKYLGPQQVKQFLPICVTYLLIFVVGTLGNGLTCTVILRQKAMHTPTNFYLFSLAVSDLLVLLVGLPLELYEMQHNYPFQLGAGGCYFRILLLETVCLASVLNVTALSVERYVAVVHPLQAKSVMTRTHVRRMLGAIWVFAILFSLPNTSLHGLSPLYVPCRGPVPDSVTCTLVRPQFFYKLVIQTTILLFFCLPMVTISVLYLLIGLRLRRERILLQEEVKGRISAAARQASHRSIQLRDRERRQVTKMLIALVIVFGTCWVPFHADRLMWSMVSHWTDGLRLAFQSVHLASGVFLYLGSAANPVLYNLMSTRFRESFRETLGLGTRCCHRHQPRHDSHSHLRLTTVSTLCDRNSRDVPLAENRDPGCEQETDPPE

[7] = target: T6, rat NMUR2 (rat, UniProt Q9ESQ4 1-395); assay: cell-based or functional assay
T6 sequence (Q9ESQ4 whole entry): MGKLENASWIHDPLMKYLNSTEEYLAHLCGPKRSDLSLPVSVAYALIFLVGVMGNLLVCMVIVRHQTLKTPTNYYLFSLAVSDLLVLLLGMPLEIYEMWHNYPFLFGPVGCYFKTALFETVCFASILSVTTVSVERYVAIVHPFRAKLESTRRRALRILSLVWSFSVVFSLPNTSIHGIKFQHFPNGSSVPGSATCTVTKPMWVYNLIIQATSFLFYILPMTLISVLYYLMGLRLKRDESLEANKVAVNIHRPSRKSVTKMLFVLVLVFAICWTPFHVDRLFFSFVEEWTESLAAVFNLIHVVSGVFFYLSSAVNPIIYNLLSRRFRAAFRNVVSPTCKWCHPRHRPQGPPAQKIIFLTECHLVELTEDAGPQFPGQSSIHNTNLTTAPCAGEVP

[8] = target: T1, human NMUR1; assay: 125I-hNMU-25 displacement, cell membranes
[9] = target: T2, human NMUR2; assay: 125I-hNMU-25 displacement, cell membranes
[10] = target: T7, mouse NMUR1-CTG (mouse, UniProt O55040 1-428); assay: 125I-hNMU-25 displacement, cell membranes
T7 construct: whole, on cells; Cell line with the start codon (CTG) as predicted from genomic databases; also called mouse R1-CTG
T7 sequence (looked up): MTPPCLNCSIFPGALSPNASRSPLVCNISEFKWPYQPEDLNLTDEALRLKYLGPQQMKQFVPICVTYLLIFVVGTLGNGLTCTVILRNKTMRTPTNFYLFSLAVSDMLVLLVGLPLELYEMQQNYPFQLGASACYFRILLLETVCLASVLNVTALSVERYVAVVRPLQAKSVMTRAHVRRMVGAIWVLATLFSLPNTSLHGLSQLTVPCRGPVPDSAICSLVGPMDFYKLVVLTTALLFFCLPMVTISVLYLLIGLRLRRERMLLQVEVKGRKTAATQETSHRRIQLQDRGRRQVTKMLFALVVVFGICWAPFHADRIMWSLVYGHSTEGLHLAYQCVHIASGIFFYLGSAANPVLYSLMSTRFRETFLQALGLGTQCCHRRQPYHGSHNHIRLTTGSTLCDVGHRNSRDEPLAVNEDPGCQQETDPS

[11] = target: T4, rat NMUR1-ATG; assay: 125I-hNMU-25 displacement, cell membranes
[12] = target: T6, rat NMUR2; assay: 125I-hNMU-25 displacement, cell membranes
[13] = target: T1, human NMUR1; assay: 125I-hNMU-25 displacement, HEK cell membranes
How it was run: (§1)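 HEK cell membranes (2-5 μg) incubated with […] ¹²⁵I-hNMU-25 and peptides for 80 min at room temperature in TrisCl pH 7.4 buffer with MgCl₂, EDTA, bacitracin and phosphoramidon. Bound ligand collected by filtration and scintillation counting; nonspecific binding with 1 μM hNMU-25. IC₅₀ from curve fitting.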

[14] = target: T2, human NMUR2; assay: 125I-hNMU-25 displacement, HEK cell membranes
How it was run: as §1

FRVDEEFQSPFASQSRGYFLFRPRN-NH2 (also called hNMU-25; native hNMU) [human NMU-25]
IC50 (nM), functional [1]: 0.2 nM
IC50 (nM), functional [2]: 0.8 nM
IC50 (nM), functional [3]: 0.9 nM
IC50 (nM), functional [4]: 0.2 nM
IC50 (nM), functional [5]: 1.3 nM
IC50 (nM), functional [6]: 1 nM
IC50 (nM), functional [7]: 1.6 nM
IC50 [8]: 0.14 nM
IC50 [9]: 0.056 nM
IC50 [10]: 0.15 nM
IC50 [11]: 1.2 nM
IC50 [12]: 0.6 nM
% activity (binding) [13]: 100%
IC50 [13]: 0.47 nM
% activity (binding) [14]: 100%
IC50 [14]: 0.19 nM
